Measurements from doi:10.1101/2020.05.22.111005 (bioRxiv, 2020).

B1: COV2-2196 (human mAb) (antibody, V domains shown)
VH: QMQLVQSGPEVKKPGTSVKVSCKASGFTFMSSAVQWVRQARGQRLEWIGWIVIGSGNTNYAQKFQERVTITRDMSTSTAYMELSSLRSEDTAVYYCAAPYCSSISCNDGFDIWGQGTMVTVSS
VL: not shown
B2: COV2-2165 (human mAb) (antibody, V domains shown)
VH: EVQLVESGGGLVQPGGSLRLSCAASGLTVRSNYMTWVRQTPGKGLEWVSVIYSGGSTFYADSVKGRFTISRDNSKNTVYLQMNSLRAEDTAVYYCARDLVTYGLDVWGQGTTVTVSS
VL: DIQLTQSPSFLSASVGDRVTITCRASQGISNYLAWYQQKPGTAPNLLIYAASTLQSGVPSRFSGSGSGTEFTLTISSLQPEDFATYYCQLLNSHPLTFGQGTRLEIK

Target: SARS-CoV-2 RBD fused to mouse Fc (RBD-mFc) (SARS-CoV-2, UniProt P0DTC2)
Assay: BLI

Binder	binding result
B1	binds
B2	binds
